Results from paper PMC5823934, “EGF receptor kinase suppresses ciliogenesis through activation of USP8 deubiquitinase” (Nature Communications, 2018).

Molecular target: T1, GST-USP8 (human, UniProt P40818 1-1118)
T1 construct: USP8 deubiquitinase, human cDNA FLJ76940 from the Human Gene and Protein Database, inserted in frame to GST in pGEX-6P-3 (BamHI/XhoI); Wild type; also called bacterially purified GST-USP8; source: E. coli BL21 (DE3), purified (glutathione-sepharose 4B)
T1 sequence (looked up): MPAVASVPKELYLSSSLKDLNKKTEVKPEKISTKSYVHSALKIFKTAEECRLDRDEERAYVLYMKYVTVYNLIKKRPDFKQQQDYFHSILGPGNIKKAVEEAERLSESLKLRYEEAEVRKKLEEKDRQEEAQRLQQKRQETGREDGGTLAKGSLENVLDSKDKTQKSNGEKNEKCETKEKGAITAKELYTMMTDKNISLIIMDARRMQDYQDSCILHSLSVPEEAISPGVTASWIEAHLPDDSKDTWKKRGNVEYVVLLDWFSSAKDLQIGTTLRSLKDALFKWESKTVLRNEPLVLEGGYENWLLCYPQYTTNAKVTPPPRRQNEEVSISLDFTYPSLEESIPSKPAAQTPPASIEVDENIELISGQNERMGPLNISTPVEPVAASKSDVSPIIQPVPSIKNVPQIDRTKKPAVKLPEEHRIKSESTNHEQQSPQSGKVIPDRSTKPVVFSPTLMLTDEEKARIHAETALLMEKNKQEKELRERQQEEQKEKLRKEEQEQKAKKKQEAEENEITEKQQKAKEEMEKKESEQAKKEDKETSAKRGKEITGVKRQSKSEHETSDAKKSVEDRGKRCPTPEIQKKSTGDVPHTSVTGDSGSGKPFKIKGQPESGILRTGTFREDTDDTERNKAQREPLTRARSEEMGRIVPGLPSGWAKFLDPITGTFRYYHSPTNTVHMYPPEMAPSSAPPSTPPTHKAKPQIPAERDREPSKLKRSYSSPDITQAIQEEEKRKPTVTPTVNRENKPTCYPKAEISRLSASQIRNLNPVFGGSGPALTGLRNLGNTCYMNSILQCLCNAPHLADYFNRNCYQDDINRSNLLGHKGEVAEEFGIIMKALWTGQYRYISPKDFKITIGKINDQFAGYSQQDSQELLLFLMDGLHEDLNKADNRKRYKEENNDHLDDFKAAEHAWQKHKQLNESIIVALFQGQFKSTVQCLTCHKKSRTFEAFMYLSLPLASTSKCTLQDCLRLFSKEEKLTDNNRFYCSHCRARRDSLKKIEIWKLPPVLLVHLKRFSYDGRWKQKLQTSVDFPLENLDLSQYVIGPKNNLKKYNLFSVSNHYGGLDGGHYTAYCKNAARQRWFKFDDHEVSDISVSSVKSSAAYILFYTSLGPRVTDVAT
Experiment: pull-down; MBP-trichoplein (1 ug) and GST-USP8 (1 ug) in cell lysis buffer (20 mM Tris-HCl pH 7.5, 150 mM NaCl, 2 mM beta-glycerophosphate, 2 mM EGTA, 1% Triton X-100), 2 h at 4 °C; glutathione-sepharose 4B; immunoblot
Conditions: both partners purified

binding result: binds
B1: MBP-trichoplein (natural protein, human, UniProt Q9BT92 1-498, looked up)
chain: MALPTLPSYWCSQQRLNQQLARQREQEARLRQQWEQNSRYFRMSDICSSKQAEWSSKTSYQRSMHAYQREKMKEEKRRSLEARREKLRQLMQEEQDLLARELEELRLSMNLQERRIREQHGKLKSAKEEQRKLIAEQLLYEHWKKNNPKLREMELDLHQKHVVNSWEMQKEEKKQQEATAEQENKRYENEYERARREALERMKAEEERRQLEDKLQAEALLQQMEELKLKEVEATKLKKEQENLLKQRWELERLEEERKQMEAFRQKAELGRFLRHQYNAQLSRRTQQIQEELEADRRILQALLEKEDESQRLHLARREQVMADVAWMKQAIEEQLQLERAREAELQMLLREEAKEMWEKREAEWARERSARDRLMSEVLTGRQQQIQEKIEQNRRAQEESLKHREQLIRNLEEVRELARREKEESEKLKSARKQELEAQVAERRLQAWEADQQEEEEEEEARRVEQLSDALLQQEAETMAEQGYRPKPYGHPKIAWN
notes: also called recombinant MBP-trichoplein; source: E. coli BL21 CodonPlus RP, purified (amylose resin)
